# Test results from patent publication US5753435.
# T1: low molecular weight (LMW) polypeptide component of the oxido reductase system of Penicillium chrysogenum (Penicillium chrysogenum)
# T1 sequence: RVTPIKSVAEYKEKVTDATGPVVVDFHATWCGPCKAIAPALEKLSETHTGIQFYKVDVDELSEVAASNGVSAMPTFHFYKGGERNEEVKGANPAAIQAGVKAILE
# B1: low molecular weight (LMW) polypeptide component of the oxido reductase system of Penicillium chrysogenum (protein)
# chain: T1 sequence
# B2: high molecular weight (HMW) polypeptide component of the oxido reductase system of Penicillium chrysogenum (enzyme)
# chain: VHSKVVIIGSGPGAHTAAIYLSRAELQPVLYEGMLANGTAAGGQLTTTTDVENFPGFPSGIGGAELMDNMRAQSERFGTEIITETISKLDLSSRPFKMWTEWNDDEGSEPVRTADAVIIATGANARRLNLPGEETYWQNGISACAVCDGAVPIFRNKPLYVIGGGDSAAEEAMFLAKYGSSVTVLVRKDKLRASNIMADRLLAHPKCKVRFNTVATEVIGENKPNGLMTHLRVKDVLSNAEEVVEANGLFYAVGHDPASGLVKGQVELDDEGYIITKPGTSFTNVEGVFACGDVQDKRYRQAITSAGSGCVAALEAEKFIAETETHQEAKPVL
# B3: oxido reductase enzyme system of Penicillium chrysogenum (HMW and LMW components together, with NADPH) (enzyme)
# chain 1: B2 chain
# chain 2: T1 sequence
# Key:
# [1] = target: δ-(L-α-aminoadipyl)-L-cysteinyl-D-valine (ACV) synthetase purified from Acremonium chrysogenum C10 (ATCC 48272) (Acremonium chrysogenum) (UniProt P25464)
# [2] = target: T1, low molecular weight (LMW) polypeptide component of the oxido reductase system of Penicillium chrysogenum (Penicillium chrysogenum)
# [3] = target: thioredoxin obtained from Spirulina platensis (Spirulina platensis)
# [4] = target: T1, low molecular weight (LMW) polypeptide component of the oxido reductase system of Penicillium chrysogenum (Penicillium chrysogenum); remark: listed apart in the source
# [5] = target: thioredoxin obtained from Spirulina platensis (Spirulina platensis); remark: listed apart in the source
# [6] = target: T1, low molecular weight (LMW) polypeptide component of the oxido reductase system of Penicillium chrysogenum (Penicillium chrysogenum); remark: listed apart in the source
binder,measurement,setting,value
B1,ACVS activity: dpm of labelled ACV produced from [14C]valine,[1],509 dpm
B2,production of isopenicillin N from bis-ACV by IPNS under non-reducing conditions: antibiotic µg/ml by bioassay on Micrococcus luteus,[2],72 µg/mL
same,DTNB reductase activity: increase of absorbance at 412 nm after 15 minutes (absorbance at 412 nm),[3],0.08
same,DTNB reductase activity: increase of absorbance at 412 nm after 15 minutes (absorbance at 412 nm),[4],0.225
same,bis-ACV reductase activity: µmol NADPH oxidized per minute (340 nm) (µmol NADPH/minute),[5],1.93
same,bis-ACV reductase activity: µmol NADPH oxidized per minute (340 nm) (µmol NADPH/minute),[6],2.25
B3,KM for reduction of the protein disulphide in insulin,insulin,2300 µM
